Legend:
[1] = target: Isoform Short of 14-3-3 protein beta/alpha (human) (UniProt P31946); assay: PIF affinity column + LC-MS/MS, CD14+ cell lysate
[2] = target: Tropomyosin alpha-4 chain (human) (UniProt P67936); assay: PIF affinity column + LC-MS/MS, CD14+ cell lysate
Tropomyosin alpha-4 chain (human), sequence (P67936 2-248 limits assumed): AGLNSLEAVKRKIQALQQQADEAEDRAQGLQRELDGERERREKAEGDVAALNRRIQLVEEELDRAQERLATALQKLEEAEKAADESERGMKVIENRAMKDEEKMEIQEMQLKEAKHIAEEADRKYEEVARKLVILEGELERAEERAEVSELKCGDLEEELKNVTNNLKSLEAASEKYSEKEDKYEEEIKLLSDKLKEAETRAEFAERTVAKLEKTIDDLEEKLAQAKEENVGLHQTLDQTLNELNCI

Isoform Short of 14-3-3 protein beta/alpha (human), sequence (P31946 3-246 limits assumed): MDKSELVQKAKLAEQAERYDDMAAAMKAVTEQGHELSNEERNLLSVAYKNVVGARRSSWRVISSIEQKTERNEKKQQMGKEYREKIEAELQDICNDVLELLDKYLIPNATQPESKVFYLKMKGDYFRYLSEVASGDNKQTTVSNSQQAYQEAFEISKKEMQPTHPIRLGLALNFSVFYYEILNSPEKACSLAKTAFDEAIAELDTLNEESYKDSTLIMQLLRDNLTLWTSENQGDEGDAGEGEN

Work on “PIF-resin (PIF15 affinity ligand on agarose) (peptide)” yielded an Inject 3 [1] of 4, an Ave [2] of 8 and an Inject 1 [2] of 8. The Inject 3 [2] was 8.

Source: patent publication US20230013244A1 (BioIncept, LLC, priority 2014, published 2023)
